Data published in patent US20210332136A1.

Molecular target: human PD-L1 on RT4 human bladder cancer cells (human) (UniProt Q9NZQ7)
Assay: cell-based or functional assay

Chain of human PD-L1 on RT4 human bladder cancer cells (human) (Q9NZQ7 19-290): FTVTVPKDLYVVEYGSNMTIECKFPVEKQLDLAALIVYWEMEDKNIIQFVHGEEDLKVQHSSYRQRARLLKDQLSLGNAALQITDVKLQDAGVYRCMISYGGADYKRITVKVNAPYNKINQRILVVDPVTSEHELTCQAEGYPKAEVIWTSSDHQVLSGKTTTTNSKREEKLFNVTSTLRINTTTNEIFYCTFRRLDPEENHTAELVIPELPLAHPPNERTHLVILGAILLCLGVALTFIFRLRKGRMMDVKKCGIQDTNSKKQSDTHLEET

## atezolizumab (antibody)
  viability of RT4 cells treated in vitro with rabusertib (Chk1 inhibitor) plus atezolizumab: 100%
